Measured values published in patent publication US20260374739A1, “SMALL MOLECULAR WEIGHT CHEMICAL COMPOUND TO ANTAGONIZE EPH-EPHRIN TETRAMERIZATION AND INHIBIT BIDIRECTIONAL SIGNALING” (THE BOARD OF REGENTS OF THE UNIVERSITY OF TEXAS SYSTEM, priority 2022, published 2026).
Read-outs that look alike come from different tables or passages of the source. One block for each molecule: values may come before it.

Legend:
human EphrinB2 = test: Octet binding kinetics, EphB to immobilized human EphrinB2
Experimental: (§1) Studies were conducted to confirm that A20 chemicals can effectively target the human Eph/Ephrin proteins. Octet system was used to first characterize the biophysical interactions of the human B class Eph and Ephrin proteins, and then was tested to assess how A20 may disrupt the interactions. Since the human and rodent proteins are highly conserved, and essentially identical, with EphB2 sharing 99.5% identity between human and mouse, with only 5 of ~1,000 amino acids different, any species-specific differences were not anticipated. Therefore, commercially available human EphrinB1-Fc (EB1), EphrinB2-Fc (EB2), and EphrinB3-Fc (EB3) ectodomain proteins were sparsely immobilized onto biosensors and then exposed to 50 nM of soluble human EphB1-His, EphB2-His, and EphB4-His ectodomains for 800 sec association and 1,000 sec dissociation steps with a total of nine different interactions analyzed. In the absence of A20 chemical, the immobilized human EphrinB proteins bound to their appropriate human EphB target proteins; with EphrinB1 only bound EphB1 and EphB2, EphrinB2 bound all three EphB1, EphB2, and EphB4, and EphrinB3 only bound EphB1 and EphB2 (FIG. 19A-19B).
(§2) While the binding kinetics described above for the various human EphB-EphrinB interactions are complicated and show clear differences, all are extremely high affinity interactions with KD values in the low nanomolar to picomolar range (Table 2). Octet software allows for detailed biophysical analysis of the sensorgram data and first attempts to fit the information to equations that follow rather standard binding characteristics, most typified by either a classic 1:1 binding type interaction (like formation of a simple receptor-ligand dimer) or something more complex/heterologous involving 2:1 binding type interactions (like Eph-Ephrin dimer and tetramer). Based on the information contained in the sensorgram run under analysis, the Octet software will attempt to draw curves to fit the data to 1:1 and 2:1 binding equations. […] The resulting curve fits are not always perfect, especially for such complex interactions as the Eph/Ephrin system. As such, while the EphB2-EB2 and EphB4-EB2 data fit a 2:1 curve fairly well, the EphB1-EB2 interaction fits neither 1:1 or 2:1 well and the R2 values of this interaction reflects this. The interaction of EB1 with its two target proteins is more divergent. […] The EphB1-EB3 and EphB2-EB3 interactions are like that for EphB1-EB1, clear 1:1 curve fits with a slow gradual on rate of association followed by no off rate in dissociation.

human EphrinB1 = test: Octet binding kinetics, EphB to immobilized human EphrinB1
Experimental: as §1, §2

human EphrinB3 = test: Octet binding kinetics, EphB to immobilized human EphrinB3; conditions: for Kd: 2:1 fit
Experimental: as §1, §2

[1] = 2:1 fit, in parentheses R2 value, read-out: KD2
[2] = in parentheses R2 value, read-out: KD
[3] = in parentheses R2 value, read-out: KD2

- Kd (human EphrinB2; [1]): 42 nM
- Kd (human EphrinB2; 2:1 fit, read-out: KD1): 0.35 nM
- Kd (human EphrinB2; [2]): 1.8 nM
- KD (binding in words) (human EphrinB1): no binding
- KD (binding in words) (human EphrinB3): no binding
B1: EphB4: soluble human EphB4-His ectodomain (protein, UniProt P54760 16-539, looked up)
extracellular domain: LEETLLNTKLETADLKWVTFPQVDGQWEELSGLDEEQHSVRTYEVCDVQRAPGQAHWLRTGWVPRRGAVHVYATLRFTMLECLSLPRAGRSCKETFTVFYYESDADTATALTPAWMENPYIKVDTVAAEHLTRKRPGAEATGKVNVKTLRLGPLSKAGFYLAFQDQGACMALLSLHLFYKKCAQLTVNLTRFPETVPRELVVPVAGSCVVDAVPAPGPSPSLYCREDGQWAEQPVTGCSCAPGFEAAEGNTKCRACAQGTFKPLSGEGSCQPCPANSHSNTIGSAVCQCRVGYFRARTDPRGAPCTTPPSAPRSVVSRLNGSSLHLEWSAPLESGGREDLTYALRCRECRPGGSCAPCGGDLTFDPGPRDLVEPWVVVRGLRPDFTYTFEVTALNGVSSLATGPVPFEPVNVTTDREVPPAVSDIRVTRSSPSSLSLAWAVPRAPSGAVLDYEVKYHEKGAEGPSSVRFLKTSENRAELRGLKRGASYLVQVRARSEAGYGPFGQEHHSQTQLDESEGWREQLA
modifications: extracellular domain His tag
notes: soluble human EphB4-His ectodomain

- Kd (human EphrinB2; [1]): 27 nM
- Kd (human EphrinB2; 2:1 fit, read-out: KD1): < 0.001 nM
- Kd (human EphrinB2; [2]): 4.3 nM
- Kd (human EphrinB3; [3]): 0.0012 nM
- Kd (human EphrinB3; read-out: KD1): 0.0014 nM
B2: EphB1: soluble human EphB1-His ectodomain (protein, UniProt P54762 18-540, looked up)
extracellular domain: MEETLMDTRTATAELGWTANPASGWEEVSGYDENLNTIRTYQVCNVFEPNQNNWLLTTFINRRGAHRIYTEMRFTVRDCSSLPNVPGSCKETFNLYYYETDSVIATKKSAFWSEAPYLKVDTIAADESFSQVDFGGRLMKVNTEVRSFGPLTRNGFYLAFQDYGACMSLLSVRVFFKKCPSIVQNFAVFPETMTGAESTSLVIARGTCIPNAEEVDVPIKLYCNGDGEWMVPIGRCTCKPGYEPENSVACKACPAGTFKASQEAEGCSHCPSNSRSPAEASPICTCRTGYYRADFDPPEVACTSVPSGPRNVISIVNETSIILEWHPPRETGGRDDVTYNIICKKCRADRRSCSRCDDNVEFVPRQLGLTECRVSISSLWAHTPYTFDIQAINGVSSKSPFPPQHVSVNITTNQAAPSTVPIMHQVSATMRSITLSWPQPEQPNGIILDYEIRYYEKEHNEFNSSMARSQTNTARIDGLRPGMVYVVQVRARTVAGYGKFSGKMCFQTLTDDDYKSELREQLP
modifications: extracellular domain His tag
notes: soluble human EphB1-His ectodomain

- Kd (human EphrinB2; [1]): 16.8 nM
- Kd (human EphrinB2; 2:1 fit, read-out: KD1): 5.9 nM
- Kd (human EphrinB2; [2]): 4.84 nM
- Kd (human EphrinB1; [1]): 40 nM
- Kd (human EphrinB1; 2:1 fit, read-out: KD1): 41 nM
- Kd (human EphrinB1; [2]): 8.57 nM
- Kd (human EphrinB3; [3]): 0.0018 nM
- Kd (human EphrinB3; read-out: KD1): 0.0018 nM
B3: EphB2: soluble human EphB2-His ectodomain (protein, UniProt P29323 19-543, looked up)
extracellular domain: VEETLMDSTTATAELGWMVHPPSGWEEVSGYDENMNTIRTYQVCNVFESSQNNWLRTKFIRRRGAHRIHVEMKFSVRDCSSIPSVPGSCKETFNLYYYEADFDSATKTFPNWMENPWVKVDTIAADESFSQVDLGGRVMKINTEVRSFGPVSRSGFYLAFQDYGGCMSLIAVRVFYRKCPRIIQNGAIFQETLSGAESTSLVAARGSCIANAEEVDVPIKLYCNGDGEWLVPIGRCMCKAGFEAVENGTVCRGCPSGTFKANQGDEACTHCPINSRTTSEGATNCVCRNGYYRADLDPLDMPCTTIPSAPQAVISSVNETSLMLEWTPPRDSGGREDLVYNIICKSCGSGRGACTRCGDNVQYAPRQLGLTEPRIYISDLLAHTQYTFEIQAVNGVTDQSPFSPQFASVNITTNQAAPSAVSIMHQVSRTVDSITLSWSQPDQPNGVILDYELQYYEKELSEYNATAIKSPTNTVTVQGLKAGAIYVFQVRARTVAGYGRYSGKMYFQTMTEAEYQTSIQEKLPL
modifications: extracellular domain His tag
notes: soluble human EphB2-His ectodomain
